The data set can be described thus: soluble on expression in E. coli; label from the status in PepcDB or PDB records.
Take “MTQPAAAVAAAAPAQTAPILGECVLKLSRSTTYEPPLYLFPELLPPVPQGTPPLPVWDAVADAVDIAASSWRVADATQLIAAGVAAAGTSGIKPSTGVERRPQAMVTLTSMIAENRLLAAGLDATVLERDAFSSAAIITHLAALQARMGLSDEEGAAIMSNHFINLLAWQKLRELNGPSLHAAVSRAEQKVSDEEAAGSAAFSPSHAAPPPSRKRSRADQDNDERDVWLPSPHPWATEAELAASDGSGRFVAVSEANVEQQVELLRTLAELYHRPWRTLASRGQQTDFVVPPGTVNVTSPFADNSKVPGALLDPATALGWGATLSSSLSTDYFGGVRVAHTACFYAVVLSAGTPTSAGKSVAPAPTRLPLDELTTYFGRESGVRGAAAVAAAAATPIAGALAPYTTHPEVLSRFQFALVLRPVYEHAADANEVRRPDSHLHVGKREPSTDDEASESDADAHQGHAAVLHTKRPHHYTLWLVNYGRNGVRVAGRGWVLSEPRQLQAGDVLIVGSEVQLRVEEHFSAAAARAPVVSDATLNTASVSSSQVKQERIEG”: the “soluble on expression in E. coli” value is “not soluble”. With “MKTSSYLLKAGVDYPTNWDEFVDWFHDEQSCTSYLYALRWPNGFICPSCSSHQSPYQLSNGKLKCHACRFQCSVTSSTLFDKTRTPMKSWFAAVWFITNQKNGVSALGVQRLLGLGSYQTAWSLMHKLRYAMVDPERDKLSGIVEVDETLIGGVIPKSSIKNQQGKRKAIVLVAVELLSPSGFGRIRLRQVESATKEHIHQFIQDVIEPGSTICSDGSQAYKQIDKKGYKHNRMVHLGSSVPAHETMAGVHRVSSLCKRWLLGTYQGAVKAKQLDYYLDEFTFRFNRRKSDSRGLLFYRLLEQAVRLEHHHHHH” the entry was “soluble”; with “MGSDKIHHHHHHMAYRDQSLGELAIAIPRATKLFRELNLDFCCGGKQTLSRAAGKKDLNIDELEAQLEKLAAQPSDARDWREAPLADIIAYIIPRFHDRHREQLPELILMAKKVERVHHDKADCPHGLANQLTAIYNELSQHMMKEERILFPMIGQGMGANAAAPISVMEHEHDDAGRDVEVVKELTNGVVPPEGACNTWRALYSGINEFITDLMEHIHLENNLLFPRALRGE”, “not soluble”; with “MAGPLSGLRVVELAGIGPGPHAAMILGDLGADVVRIDRPSSVDGISRDAMLRNRRIVTADLKSDQGLELALKLIAKADVLIEGYRPGVTERLGLGPEECAKVNDRLIYARMTGWGQTGPRSQQAGHDINYISLNGILHAIGRGDERPVPPLNLVGDFGGGSMFLLVGILAALWERQSSGKGQVVDAAMVDGSSVLIQMMWAMRATGMWTDTRGANMLDGGAPYYDTYECADGRYVAVGAIEPQFYAAMLAGLGLDAAELPPQNDRARWPELRALLTEAFASHDRDHWGAVFANSDACVTPVLAFGEVHNEPHIIERNTFYEANGGWQPMPAPRFSRTASSQPRPPAATIDIEAVLTDWDG”, “soluble”. Then “MHGVEFAPLERQHGSQVLALLRGTLLVPLPRLHQRLEEAYERDARLGLAQVALCRLAGNAEKVVGVLLARVATRRTCCAQVYIDAVAVDAVFQGQGIGSRLLLRVLTPCLPDGLEVREVFLHTPLQATELVAFYRSCGFESDDEVIDNYYPRRWMPQAQALVLRWRPPTAAQHQHEERKGPQDADVS”, with “not soluble”; and “MKIALIGITGRVGSRLADELLRRGHHVTGIARDPASVRPQPNLTARQGDAAVPEDLAPILAGHDAVISAARFVSLDAKPLLAAIRQAGVPRLLVVGGAGSLQVAPGVALIDTPEFPDAYKPEARAGVVFLDTLRREQEVEWTFLSPSALFEPGERTGEFRLGADLLLADDEGKSWISMEDYAIALVDELETPRHARRRFTVGYLEHHHHHH”, with “not soluble”.

As to “MSVSRRDVLKFAAATPGVLGLGVVASSLRAAPASAGSLGTLLDYAAGVIPASQIRAAGAVGAIRYVSDRRPGGAWMLGKPIQLSEARDLSGNGLKIVSCYQYGKGSTADWLGGASAGVQHARRGSELHAAAGGPTSAPIYASIDDNPSYEQYKNQIVPYLRSWESVIGHQRTGVYANSKTIDWAVNDGLGSYFWQHNWGSPKGYTHPAAHLHQVEIDKRKVGGVGVDVNQILKPQFGQWA”, the “soluble on expression in E. coli” value is given as “not soluble”. As to “MGSDKIHHHHHHMNLKQLEYFMHVAELGSFSKAAMVLDVAQPALSRQVRGLETELRQQLFLRNGRGVALTEAGRRLFDHSVAIMQMVAHAREDLGASRDAPVGRVTIGLPPSIARQLTLPLIDHFKRTLPSARLAIVEGLSSHIIEWVTTGRADVGLVYNPDAQPGIEITPLLQEPLGLVSYAPPSKRRGAAAPLPFKELSKYPLIVPERVHAMRRLLENEAALAGVKLDIAWEVSSVPSIIELVCAGYGHAVLTRSGVAASPRAAELVMRPLIEPAPASALCLVVSATRRPTPLAQHSMRMLTDLVRTLPT”, the “soluble on expression in E. coli” value is on record as “not soluble”. Then “MGSDKIHHHHHHMKIAFDAKRITHNATGLGNYSRFVVNSLSASFPEHTYQLYTPGKGKEALRKRIEERPSVSFHYPEGRFDKLFPSLWRTSGLTATLRKEHVDLFHGLSNEIPMNLKQNGIPAVVTIHDLIFLRYPQLYKPIDRSIYTYKFKQACLRSDKIIAISRQTMRDIRDFFHIPESKIEVVYQGCDPIFGQAVQEDVKSSVREKYQINGPYILYVGSIEERKNLLLLVKALKKLKEDISVIAIGKHTPYTDTVETYIRENNLSGRVHILTHIPFNELAAFYQMATLFVYPSFFEGFGIPILEAQLAGIPVIAATGSCLEEAGGPSALYTDPRNEQELRGLIESVLNEPKLAESMRSGGRENIRRFMPDVLAAHFMRVYENISRS”, with “not soluble”. “MKSMSEYLNLLKEAIQNVVDGGWHETKRKGNTGIGKTFEDLLEKEEDNLDAPDFHDIEIKTHETAAKSLLTLFTKSPTNPRGANTMLRNRYGKKDEYGNNILHQTVSGNRKTNSNSYNYDFKIDIDWESQVVRLEVFDKQDIMIDNSVYWSFDSLQNQLDKKLKYIAVISAESKIENEKKYYKYNSANLFTDLTVQSLCRGIENGDIKVDIRIGAYHSGKKKGKTHDHGTAFRINMEKLLEYGEVKVIV”: the “soluble on expression in E. coli” value was “soluble”.

As for “MTSMDNSARGQRHNEFADSAARIEAANDMSISAGRDVINKGSVLESGRDMSIQAGRDVTIAPTEVTNSLFSDSKHNSSDITQLGSTASAGRDLTVQAGRDISVIASQIDAKRDIAMAATENLTISSAADEEHSLSKSKKLTRQEDHVSQIAADLDAGGSVALQAGQNLAVISSRITAGKEAYLVAGDQLDILAAQDSDYSLYDKKKKGSFGAKKTKRDEITDVKNIGSEITTGGDLLLASGGDQKYQVAKLESGKDLTIDSGGAVTFEGVKDLHQESHEKSKSDLAWNSSKGKGNTDETLRQSELVAKGELAIRAVEGLKIDIKQVDQQSVSQTIDAMVKADPQLAWLKEAELRGDVDWRQVKEVHDSLIGTAVNAAVVAGLTSATSQAVISTVNNKGNLGAALKDVTSAESMKGYLVSGLAAGFAAGILDPAYGVSPENTAKATHGFDLGSVDGFTNYAGYTLAQGGFSAAANTAINGGSLTDNLAQAAISSAADAMSAGIYNKLGTKLEFSGLPSKLAAHALVGGLIAELAGGDFRSGALAAGANEAFVNLVGDKIFVGESHDKLLAMTSQLVGLTVAAAAGGTDKDQAVAGWVAQQATTFNYLEHSEKEAFIKEMLGCDTDKCAREKWEQGKFDEDSQANVQYANDIAGSQRARETRDRVLDSLGSILDMNCPTSACEGYKQLLMERSLGTLKNLNQVIKDWASVDQRLGLMAGAAVGGQANYKCGSTASRSAGVDLEHHHHHH”, the “soluble on expression in E. coli” value is “soluble”. For “LKPKILTASRKIKIKAGFTHNLEVDFIGAPDPTATWTVGDSGAALAPELLVDAKSSTTSIFFPSAKRADSGNYKLKVKNELGEDEAIFEVIVQ”, the “soluble on expression in E. coli” value was “soluble”. For “MHNLANLYRTGWPGGVEKDTQKALDLYQKMIDLDVPQGFYDMGAMIGNRAGVKNPATDGLTFLDKAASLGNPPALTELGKFYIYVAKKKDLGLAYTHCAASQGYAPASYELGAYYKIVEHNFPKALVYYQVSVSQGGKSAAFFLSRVFGSETPPASAMWYAPDEKLREAYYSIYKKLEADPLEHHHHHH”, the “soluble on expression in E. coli” value is listed as “not soluble”. With “MTNKEIKKLCRSFGADLVGVASVERFVNAPKGYHPTDVMPTAKSVISLGMVLPKDILEQDIRTYTDIRNEAVKKMDKVAADVAAELKGLKYKAVSIVSLSGKFVDGHFRSRVSLKHAAELAGLGVIARNYLLTNDKYGNLLWFTAVVTSLELEPDPLATYQVCNNCNLCVDLCPSGALTDENNFSQKGCRKVCYITVKGVLELRCWQCRNVCPYKHGIND” the entry was “not soluble”; with “MFFIGIFGIENKQKEVKQLENIYCKTCSTRTMGTLIKSYEYFHIFFIPIFRWNEKYYVMCKRCNSIYEISKEKGKAIENGEINEVNLEDMTLIQEGQVYGKRAVKKVCPNCGKTVDGDYNYCPYCGSEILEHHHHHH”, “not soluble”; with “MPILNLNNFLAALGNTPDYGRLFARAEHLAQVQKHLLNAVPFQLRNQCTVGQYTADGLLVIYAGNGTTATRLRHLAPSIRQKMNNAGVKVENIRFSIQPQLHSLESGNVREITRSLSQTAIEHLDKLSDSLPAGSPLQSSLAALLANSRRK”, “not soluble”.

On to “MSLEIGILDIKGSLPLFEDFGNLPTKIITENNYKEIKDLDALIIPGGSLIESKSLNDDLKKEIINFNGYIIGICSGFQILAKKIDIGRKSSVPIIKEGLGLLDVEFSPLVCTDRVEFEVKKSIFGEGKGEGFHCHTYGNIEVVDKETKILTVSKVKKLNYKLGAEKEIISGAFKGKVFGTMVHNFLDNEFVRDNFLKHLGVTEDEKEEIFEKNKIIKDELKKRALKYRLNPKLLKENNKKDVNKKRGIILLATSSNSGKTFLTTALSSKLNGRVFVAKIGGDVRDIVPALYLLREKMTKYNSIKIGERGWVDVSKFLDYIKKSDYDYIIVEGVMGAFTAALKNISSYQIAKKLGFPVYIVSACNISGIEGAFVEAMAYYSLLKDIGIKVEGVILNKVYDWNSFNKLKSLAEKHNIKLYGVGKIANESRGLIPEVEIDYESFCRNAFNVDLEIEIPEVEINNHIKDEEDNFLERLDNWMENINEGHHHHHH”, for which the “soluble on expression in E. coli” value is “soluble”. With “MGSDKIHHHHHHMKTSVKFETIFPLTTAPLIQCITNEITCESMANALLYIDAKPIMADDPREFPQMFQQTSALVLNLGHLSQEREQSLLAASDYARQVNKLTVVDLVGYGASDIRNEVGEKLVHNQPTVVKGNLSEMRTFCQLVSHGRGVDGSPLDQSEEAIEELIQALRQQTQKFPQTVFLATGIQDVLVSQEQVIVLQNGVPELDCFTGTGDLVGALVAALLGEGNAPMTAAVAAVSYFNLCGEKAKTKSQGLADFRQNTLNQLSLLMKEKDWFEAVKGRVL” the entry was “not soluble”; with “MSLTELLNNQDYRKEALKEIIRELHRGKSVEEVKARFNELIKDVAPAEISLMEQALINEGLPVEEVQRLCDVHAAVFKESLERAPQPETIPGHPVHTFKEENRALEDLMIREIQPLLAELRRANPDVEKDLAIKLAEKLNLLQDVNKHYSRKENLLFPYLEKYQIVGPPKVMWGVDDEIRDLLKEARDLAVNYVPDKKEELITRTEAALAKIKEMIFKEERILFPMALETLTEDEWYRIMLDSASIGYCLIEPREDWRPAQVKLDQKETVASEETRGYIKFATGILTPREISLIFDHLPVDITFVDKDNVVKYFSNTRERIFTRSRAVIGRRVENCHPPASVQVVEKLIADFKSGRKDREAFWLHLGDKYVFIQYFAVRDEKGDFAGTLEVTMDLKPLQAISGEKRIMDEGHHHHHH”, “soluble”. In the case of “MNMVAQQMPSPEEIAAQLQMIRDQIAELQGVLAQLELRLRSVQAAKETVEKAAGQDGETLFPGDPELNTILKARLLEPGKAIVHLGLNVYAKLDTAKATEILAKKEDALKRSLETLKQELDKLSRTHDQYLQLLQALTAGQAAQQAGQQQKQGS”, the “soluble on expression in E. coli” value is reported as “soluble”.

For the origin of these results see the DeepSol protein solubility set.
